From patent publication US6596526
Numbering of substitutions follows the chain as printed.

B1: Furin deletion mutant 578-711 (protein)
chain: QKVFTNTWAVRIPGGPAVANSVARKHGFLNLGQIFGDYYHFWHRGVTKRSLSPHRPRHSRLQREPQVQWLEQQVAKRRTKRDVYQEPTDPKFPQQWYLSGVTQRDLNVKAAWAQGYTGHGIVVSILDDGIEKNHPDLAGNYDPGASFDVNDQDPDPQPRYTQMNDNRHGTRCAGEVAAVANNGVCGVGVAYNARIGGVRMLDGEVTDAVEARSLGLNPNHIHIYSASWGPEDDGKTVDGPARLAEEAFFRGVSQGRGGLGSIFVWASGNGGREHDSCNCDGYTNSIYTLSISSATQFGNVPWYSEACSSTLATTYSSGNQNEKQIVTTDLRQKCTESHTGTSASAPLAAGIIALTLEANKNLTWRDMQHLVVQTSKPAHLNANDWATNGVGRKVSHSYGYGLLDAGAMVALAQNWTTVAPQRKCIIDILTEPKDIGKRLEVRKTVTACLGEPNHITRLEHAQARLTLSYNRRGDLAIHLVSPMGTRSTLLAARPHDYSADGFNDWAFMTTHSWDEDPSGEWVLEIENTSEANNYGTLTKFTLVLYGTAPEGHLPEVVAGLSCAFIVLVFVTVFLVLQLRSGFSFRGVKVYTMDRGLISYKGLPPEAWQEECPSDSEEDEGRGERTAFIKDQSAL
B2: Furin deletion mutant Helix 10 (protein)
chain: QKVFTNTWAVRIPGGPAVANSVARKHGFLNLGQIFGDYYHFWHRGVTKRSLSPHRPRHSRLQREPQVQWLEQQVAKRRTKRDVYQEPTDPKFPQQWYLSGVTQRDLNVKAAWAQGYTGHGIVVSILDDGIEKNHPDLAGNYDPGASFDVNDQDPDPQPRYTQMNDNRHGTRCAGEVAAVANNGVCGVGVAYNARIGGVRMLDGEVTDAVEARSLGLNPNHIHIYSASWGPEDDGKTVDGPARLAEEAFFRGVSQGRGGLGSIFVWASGNGGREHDSCNCDGYTNSIYTLSISSATQFGNVPWYSEACSSTLATTYSSGNQNEKQIVTTDLRQKCTESHTGTSASAPLAAGIIALTLEANKNLTWRDMQHLVVQTSKPAHLNANDWATNGVGRKVSHSYGYGLLDAGAMVALAQNWTTVAPQRKCIIDILTEPKDIGKRLEVRKTVTACLGEPNHITRLEHAQARLTLSYNRRGDLAIHLVSPMGTRSTLLAARPHDYSADGFNDWAFMTTHSWDEDPSGEWVLEIENTSEANNYGTLTKFTLVLYGTAPEGAEMWHQAMEVHLPEVVAGLSCAFIVLVFVTVFLVLQLRSGFSFRGVKVYTMDRGLISYKGLPPEAWQEECPSDSEEDEGRGERTAFIKDQSAL
B3: Furin deletion mutant Loop 10 (protein)
chain: B2 chain with A552G, E553S, M554P, W555N, H556S, A558P, M559Y, E560D, V561G

These proteins were tested against recombinant von Willebrand Factor precursor, P04275.
With B1 the “processing of rvWF precursor (Western blot)” value (“processing of rvWF precursor” for short) was “the R683A, Helix 10, Loop 10 and 578-711 furin constructs evidence proteolytic activity”. In the case of B2, the “processing of rvWF precursor” value is reported as “the R683A, Helix 10, Loop 10 and 578-711 furin constructs evidence proteolytic activity”. In the case of B3, the “processing of rvWF precursor” value is reported as “the R683A, Helix 10, Loop 10 and 578-711 furin constructs evidence proteolytic activity”.
